Patent publication US20260265381A1 (Hoffmann-La Roche, published 2026)

Tests used:
[1] = molecular target: T1, human CD3 expressed on cells (Jurkat NFAT reporter cells; human T cells isolated from PBMCs) (human, UniProt P07766 23-207); experiment: flow cytometry on human T cells isolated from PBMCs; detection with Alexa Fluor 488 anti-human IgG
T1 construct: on cells it is part of the CD3/TCR complex; also called CD3 on Jurkat cells; CD3 expressed on T-cells

[2] = molecular target: T2, human HLA-G expressed on cells (JEG3 cells, natural; SKOV3 cells transfected with recombinant HLA-G) (human, UniProt P17693 25-338); experiment: cell-based or functional assay
[3] = molecular target: T2, human HLA-G expressed on cells (JEG3 …); experiment: flow cytometry, cell binding on SKOV3 HLA-G cells
[4] = molecular target: T2, human HLA-G expressed on cells (JEG3 …); experiment: cell-based or functional assay; remark: listed apart in the source
[5] = molecular target: T2, human HLA-G expressed on cells (JEG3 …); experiment: flow cytometry, cell binding on JEG3 cells
[6] = molecular target: T3, recombinant single-chain HLA-G monomer/human HLA-G β2M MHC class I complex (human); experiment: SPR single cycle kinetics (Biacore T200, 25 C); antibody captured via Fc on CM3 chip, HLA-G complex as analyte
T3 construct: also called wt-HLA-G complex; wt-HLA-G antigen

T1 sequence (P07766 23-207 limits assumed): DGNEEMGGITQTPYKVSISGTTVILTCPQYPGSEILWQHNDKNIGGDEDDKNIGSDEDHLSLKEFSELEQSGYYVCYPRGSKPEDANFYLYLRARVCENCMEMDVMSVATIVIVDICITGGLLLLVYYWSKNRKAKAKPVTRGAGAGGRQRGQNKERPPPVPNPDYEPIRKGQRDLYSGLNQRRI

Row | Binder | binding result [1] | T cell mediated cytotoxicity induction EC50 (nM), JEG3 (Caspase 8 activation) [2] [nM] | T cell mediated cytotoxicity induction EC50 (nM), SKOV3 HLA-G (Caspase 8 activation) [2] [nM] | EC50 [3] [nM] | IFNgamma induction EC50 (nM), JEG3 [4] [nM] | IFNgamma induction EC50 (nM), SKOV3 HLA-G [4] [nM] | EC50 [5] [nM] | Kd [6] [nM] | koff [6] [s⁻¹] | kon [6] [M⁻¹ s⁻¹] | t½ [6] [min]
1 | P1AF7977 (HLA-G-0090-VL-S32P/CD3 P035-093 (P035)) (bispecific antibody, human IgG1, kappa, L234A L235A, 2+1 T cell bispecific: light chain 1 is the crossed VH(CD3)-CL chain, light chain 2 the HLA-G light chain (two copies, CLM-00046); also called HLA-G TCB) light 1: EVQLLESGGGLVQPGGSLRLSCAASGFTFSSYAMNWVRQAPGKGLEWVSRIRSKYNNYATYYADSVKGRFTISRDDSKNTLYLQMNSLRAEDTAVYYCVRASNFPASYVSYFAYWGQGTLVTVSSASVAAPSVFIFPPSDEQLKSGTASVVCLLNNFYPREAKVQWKVDNALQSGNSQESVTEQDSKDSTYSLSSTLTLSKADYEKHKVYACEVTHQGLSSPVTKSFNRGEC light 2: not shown heavy 1: QVQLQQSGPGLLKPSQTLSLTCAISGDSVSSNRAAWNWIRQSPSRGLEWLGRTYYRSKWYNDYAVSVQGRITLIPDTSKNQFSLRLNSVTPEDTAVYYCASVRAVAPFDYWGQGVLVTVSSASTKGPSVFPLAPSSKSTSGGTAALGCLVEDYFPEPVTVSWNSGALTSGVHTFPAVLQSSGLYSLSSVVTVPSSSLGTQTYICNVNHKPSNTKVDEKVEPKSCDKTHTCPPCPAPEAAGGPSVFLFPPKPKDTLMISRTPEVTCVVVDVSHEDPEVKFNWYVDGVEVHNAKTKPREEQYNSTYRVVSVLTVLHQDWLNGKEYKCKVSNKALGAPIEKTISKAKGQPREPQVCTLPPSRDELTKNQVSLSCAVKGFYPSDIAVEWESNGQPENNYKTTPPVLDSDGSFFLVSKLTVDKSRWQQGNVFSCSVMHEALHNHYTQKSLSLSP heavy 2: not shown | binds | 12 | 1.4 | 1.5 | 20 | 30 | 0.42 | – | – | – | –
2 | P1AF7979 (HLA-G-0090-VL-S32P/CD3 V9) (bispecific antibody, human IgG1, kappa, L234A L235A, 2+1 T cell bispecific: light chain 1 is the crossed VH(CD3)-CL chain, light chain 2 the HLA-G light chain (two copies, CLM-00046); also called HLA-G TCB) light 1: EVQLVESGGGLVQPGGSLRLSCAASGYSFTGYTMNWVRQAPGKGLEWVALINPYKGVSTYNQKFKDRFTISVDKSKNTAYLQMNSLRAEDTAVYYCARSGYYGDSDWYFDVWGQGTLVTVSSASVAAPSVFIFPPSDEQLKSGTASVVCLLNNFYPREAKVQWKVDNALQSGNSQESVTEQDSKDSTYSLSSTLTLSKADYEKHKVYACEVTHQGLSSPVTKSFNRGEC light 2: not shown heavy 1: QVQLQQSGPGLLKPSQTLSLTCAISGDSVSSNRAAWNWIRQSPSRGLEWLGRTYYRSKWYNDYAVSVQGRITLIPDTSKNQFSLRLNSVTPEDTAVYYCASVRAVAPFDYWGQGVLVTVSSASTKGPSVFPLAPSSKSTSGGTAALGCLVEDYFPEPVTVSWNSGALTSGVHTFPAVLQSSGLYSLSSVVTVPSSSLGTQTYICNVNHKPSNTKVDEKVEPKSCDKTHTCPPCPAPEAAGGPSVFLFPPKPKDTLMISRTPEVTCVVVDVSHEDPEVKFNWYVDGVEVHNAKTKPREEQYNSTYRVVSVLTVLHQDWLNGKEYKCKVSNKALGAPIEKTISKAKGQPREPQVCTLPPSRDELTKNQVSLSCAVKGFYPSDIAVEWESNGQPENNYKTTPPVLDSDGSFFLVSKLTVDKSRWQQGNVFSCSVMHEALHNHYTQKSLSLSP heavy 2: not shown | binds | 4.6 | 1 | 0.58 | 29 | 16 | 0.36 | – | – | – | –
3 | P1AF7978 (HLA-G-0090-VL-S32P/CD3 Clone 22 (Cl22)) (bispecific antibody, human IgG1, kappa, L234A L235A, 2+1 T cell bispecific: light chain 1 is the crossed VH(CD3)-CL chain, light chain 2 the HLA-G light chain (two copies, CLM-00046); also called HLA-G-0090-VL-S32P/CD3 Cl22; HLA-G TCB) light 1: EVQLLESGGGLVQPGGSLRLSCAASGFQFSSYAMNWVRQAPGKGLEWVSRIRSKYNNYATYYADSVKGRFTISRDDSKNTLYLQMNSLRAEDTAVYYCVRHTTFPSSYVSYYGYWGQGTLVTVSSASVAAPSVFIFPPSDEQLKSGTASVVCLLNNFYPREAKVQWKVDNALQSGNSQESVTEQDSKDSTYSLSSTLTLSKADYEKHKVYACEVTHQGLSSPVTKSFNRGEC light 2: not shown heavy 1: QVQLQQSGPGLLKPSQTLSLTCAISGDSVSSNRAAWNWIRQSPSRGLEWLGRTYYRSKWYNDYAVSVQGRITLIPDTSKNQFSLRLNSVTPEDTAVYYCASVRAVAPFDYWGQGVLVTVSSASTKGPSVFPLAPSSKSTSGGTAALGCLVEDYFPEPVTVSWNSGALTSGVHTFPAVLQSSGLYSLSSVVTVPSSSLGTQTYICNVNHKPSNTKVDEKVEPKSCDKTHTCPPCPAPEAAGGPSVFLFPPKPKDTLMISRTPEVTCVVVDVSHEDPEVKFNWYVDGVEVHNAKTKPREEQYNSTYRVVSVLTVLHQDWLNGKEYKCKVSNKALGAPIEKTISKAKGQPREPQVCTLPPSRDELTKNQVSLSCAVKGFYPSDIAVEWESNGQPENNYKTTPPVLDSDGSFFLVSKLTVDKSRWQQGNVFSCSVMHEALHNHYTQKSLSLSP heavy 2: not shown | binds | 2.6 | 1.36 | 0.15 | 2.2 | 2.6 | 0.12 | – | – | – | –
4 | HLA-G-0090-VL-N31D (antibody, IgG1, V domains shown, also called HLA-G-0090-N31D) VH: QVQLQQSGPGLLKPSQTLSLTCAISGDSVSSNRAAWNWIRQSPSRGLEWLGRTYYRSKWYNDYAVSVQGRITLIPDTSKNQFSLRLNSVTPEDTAVYYCASVRAVAPFDYWGQGVLVTVSS VL: not shown | – | – | – | – | – | – | – | 20.2 | 0.00391 | 194000 | 2.96
5 | HLA-G-0090-VL-N31Y (antibody, IgG1, V domains shown, also called HLA-G-0090-N31Y) VH: QVQLQQSGPGLLKPSQTLSLTCAISGDSVSSNRAAWNWIRQSPSRGLEWLGRTYYRSKWYNDYAVSVQGRITLIPDTSKNQFSLRLNSVTPEDTAVYYCASVRAVAPFDYWGQGVLVTVSS VL: not shown | – | – | – | – | – | – | – | 2 | 0.00107 | 549000 | 10.8
6 | HLA-G-0090-VL-N31T (antibody, IgG1, V domains shown, also called HLA-G-0090-N31T) VH: QVQLQQSGPGLLKPSQTLSLTCAISGDSVSSNRAAWNWIRQSPSRGLEWLGRTYYRSKWYNDYAVSVQGRITLIPDTSKNQFSLRLNSVTPEDTAVYYCASVRAVAPFDYWGQGVLVTVSS VL: not shown | – | – | – | – | – | – | – | 2.3 | 0.000769 | 342000 | 15
7 | HLA-G-0090-VL-N31S (antibody, IgG1, V domains shown, also called HLA-G-0090-N31S) VH: QVQLQQSGPGLLKPSQTLSLTCAISGDSVSSNRAAWNWIRQSPSRGLEWLGRTYYRSKWYNDYAVSVQGRITLIPDTSKNQFSLRLNSVTPEDTAVYYCASVRAVAPFDYWGQGVLVTVSS VL: not shown | – | – | – | – | – | – | – | 2.4 | 0.000922 | 383000 | 12.5
8 | HLA-G-0090-VL-N31L (antibody, IgG1, V domains shown, also called HLA-G-0090-N31L) VH: QVQLQQSGPGLLKPSQTLSLTCAISGDSVSSNRAAWNWIRQSPSRGLEWLGRTYYRSKWYNDYAVSVQGRITLIPDTSKNQFSLRLNSVTPEDTAVYYCASVRAVAPFDYWGQGVLVTVSS VL: not shown | – | – | – | – | – | – | – | 1.7 | 0.00871 | 5.28e+06 | 1.33
9 | HLA-G-0090-VL-N31Q (antibody, IgG1, V domains shown, also called HLA-G-0090-N31Q) VH: QVQLQQSGPGLLKPSQTLSLTCAISGDSVSSNRAAWNWIRQSPSRGLEWLGRTYYRSKWYNDYAVSVQGRITLIPDTSKNQFSLRLNSVTPEDTAVYYCASVRAVAPFDYWGQGVLVTVSS VL: not shown | – | – | – | – | – | – | – | 2 | 0.00373 | 1.91e+06 | 3.1
10 | HLA-G-0090-VL-N31Y-N38Y (antibody, IgG1, V domains shown, also called HLA-G-0090-VL-N31Y-N38Y-GL; HLA-G-0090-N31Y-N38Y) VH: QVQLQQSGPGLLKPSQTLSLTCAISGDSVSSNRAAWNWIRQSPSRGLEWLGRTYYRSKWYNDYAVSVQGRITLIPDTSKNQFSLRLNSVTPEDTAVYYCASVRAVAPFDYWGQGVLVTVSS VL: not shown | – | – | – | – | – | – | – | 23.6 | – | – | 0
